According to paper doi:10.1101/2025.09.09.675230:

How the values were obtained:
[1] = biological target: Measles virus hemagglutinin (H) ectodomain with twin StrepII tag (HECT-TS), residues 149-617 (Measles virus strain IC323 (Ichinose-B95a)); assay: cryo-EM structure
[2] = biological target: Measles virus hemagglutinin (H) ectodomain, untagged (HECT), residues 149-617 (Measles virus strain IC323 (Ichinose-B95a)); assay: cryo-EM structure

Measles virus hemagglutinin (H) ectodomain with twin StrepII tag (HECT-TS), residues 149-617 (domain or fragment)
stoichiometry N [1]: 2

Measles virus hemagglutinin (H) ectodomain, untagged (HECT), residues 149-617 (domain or fragment)
stoichiometry N [2]: 2
